# From patent US5569830
# Target: polygalacturonase (endo-PG) from the culture filtrate of Botrytis cinerea DEL 11 (Botrytis cinerea DEL 11)
binder,measurement,value
"pear polygalacturonase inhibitor protein (PGIP) purified from Pyrus communis L. cv Bartlett fruit (protein, glycoprotein: N-linked glycans (seven potential N-glycosylation sites; occupied sites not determined)) DLCNPDDKKVLLQIKKAFGDPYVLASWKSDTDCCDWYCVTCDSTTNRINSLTIFAGQVSGQIPALVGDLPYLETLEFHKQPNLTGPIQPAIAKLKGLKSLRLSWTNLSGSVPDFLSQLKNLTFLDLSFNNLTGAIPSSLSELPNLGALRLDRNKLTGHIPISFGQFIGNVPDLYLSHNQLSGNIPTSFAQMDFTSIDLSRNKLEGDASVIFGLNKTTQIVDLSRNLLEFNLSKVEFPTSLTSVDINHNKIYGSIPVEFTQLNFQFLNVSYNRLCGQIPVGGKLQSFDEYSYFHNRCLCGAPLPSCK",release of reducing sugars from sodium polypectate (reducing sugar assay) (times (against the tomato PGIPs)),20
